Laboratory results from patent US20240132604A1.

Biological target: CHO-hCCR8 (human) (UniProt P51685)
Assay: FACS binding, CHO-K1 cells overexpressing human CCR8

Chain of UniProt P51685 (P51685 whole entry): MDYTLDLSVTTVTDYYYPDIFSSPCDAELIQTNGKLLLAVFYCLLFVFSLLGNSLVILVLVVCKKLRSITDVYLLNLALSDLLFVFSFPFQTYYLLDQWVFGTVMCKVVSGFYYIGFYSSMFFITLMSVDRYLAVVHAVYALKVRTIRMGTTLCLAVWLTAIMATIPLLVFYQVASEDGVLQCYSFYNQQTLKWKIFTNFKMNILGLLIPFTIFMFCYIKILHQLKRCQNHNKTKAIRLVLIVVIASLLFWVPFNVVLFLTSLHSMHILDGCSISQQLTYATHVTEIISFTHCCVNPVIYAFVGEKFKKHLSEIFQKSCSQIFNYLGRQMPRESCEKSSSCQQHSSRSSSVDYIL

GS-1811
EC50: 658 pM
